# Measurements taken from US20170101470A1 (PROTHENA BIOSCIENCES, published 2017).
# Where a chain is given by its changes, count along the chain named. In names and notes the source's numbering stands.
# B1: human MCAM expressed on CHO cells (full length human MCAM gene) (receptor)
# chain: VPGEAEQPAPELVEVEVGSTALLKCGLSQSQGNLSHVDWFSVHKEKRTLIFRVRQGQGQSEPGEYEQRLSLQDRGATLALTQVTPQDERIFLCQGKRPRSQEYRIQLRVYKAPEEPNIQVNPLGIPVNSKEPEEVATCVGRNGYPIPQVIWYKNGRPLKEEKNRVHIQSSQTVESSGLYTLQSILKAQLVKEDKDAQFYCELNYRLPSGNHMKESREVTVPVFYPTEKVWLEVEPVGMLKEGDRVEIRCLADGNPPPHFSISKQNPSTREAEEETTNDNGVLVLEPARKEHSGRYECQAWNLDTMISLLSEPQELLVNYVSDVRVSPAAPERQEGSSLTLTCEAESSQDLEFQWLREETDQVLERGPVLQLHDLKREAGGGYRCVASVPSIPGLNRTQLVKLAIFGPPWMAFKERKVWVKENMVLNLSCEASGHPRPTISWNVNGTASEQDQDPQRVLSTLNVLVTPELLETGVECTASNDLGKNTSILFLELVNLTTLTPDSNTTTGLSTSTASPHTRANSTSTERKLPEPESRGVVIVAVIVCILVLAVLGAVLYFLYKKGKLPCRRSGKQEITLPPSRKTELVVEVKSDKLPEEMGLLQGSSGDKRAPGDQGEKYIDLRH
# notes: also called hMCAM expressing CHO cells; CD146
# B2: human MCAM Y318A mutant displayed on mammalian cells (Example 5) (receptor)
# chain: B1 chain with Y295A
# notes: construct and any tag not described
# B3: humanized anti-MCAM antibody h2120_VH1 + h2120_VL3 (antibody, V domains shown)
# VH: QVTLKESGPVLVKPTETLTLTCTVSGFSLTSNGVSWVRQPPGKALEWIAAISSGGTTYYNSAFKSRLTISRDTSKSQVVLTMTNMDPVDTATYYCARRYGYGWYFDFWGQGTLVTVSS
# VL: DIQMTQSPSSLSASVGDRVTINCKASQNIYNSLAWYQQKPGKAPKVLIFNANSLQTGIPSRFSGSGSGTDFTLTISSLQPEDFATYYCQQFYSGYTFGQGTKLEIK
# notes: V regions cloned into vectors containing human CK (VL) or human IgG1 (VH); also called h2120VH1VL3; Standard VH + conservative VL
# B4: humanized anti-MCAM antibody h2120_VH2 + h2120_VL3 (antibody, V domains shown)
# VH: B3 VH with T68S
# VL: B3 VL
# notes: Human IgG1 / human kappa; also called h2120VH2VL3; Conservative VH + conservative VL
# B5: humanized anti-MCAM antibody h2120_VH5 + h2120_VL3 (antibody, V domains shown)
# VH: B3 VH with G33A
# VL: B3 VL
# notes: Human IgG1 / human kappa; also called h2120VH5VL3; VH5VL3
# Legend:
# recombinant laminin 511 = biological target: T1, recombinant laminin 511 (UniProt O15230 36-3695; P07942 22-1786; P11047 34-1609); assay: flow cytometry with a pan-laminin antibody on CHO cells transfected with human MCAM
# T1 construct: also called laminin 10 (α5β1γ1)
# laminin α-4 = laminin α-4 (UniProt Q16363 25-1823); assay: FACS on MCAM mutants displayed on mammalian cells
# laminin α-4, sequence (Q16363 25-1823): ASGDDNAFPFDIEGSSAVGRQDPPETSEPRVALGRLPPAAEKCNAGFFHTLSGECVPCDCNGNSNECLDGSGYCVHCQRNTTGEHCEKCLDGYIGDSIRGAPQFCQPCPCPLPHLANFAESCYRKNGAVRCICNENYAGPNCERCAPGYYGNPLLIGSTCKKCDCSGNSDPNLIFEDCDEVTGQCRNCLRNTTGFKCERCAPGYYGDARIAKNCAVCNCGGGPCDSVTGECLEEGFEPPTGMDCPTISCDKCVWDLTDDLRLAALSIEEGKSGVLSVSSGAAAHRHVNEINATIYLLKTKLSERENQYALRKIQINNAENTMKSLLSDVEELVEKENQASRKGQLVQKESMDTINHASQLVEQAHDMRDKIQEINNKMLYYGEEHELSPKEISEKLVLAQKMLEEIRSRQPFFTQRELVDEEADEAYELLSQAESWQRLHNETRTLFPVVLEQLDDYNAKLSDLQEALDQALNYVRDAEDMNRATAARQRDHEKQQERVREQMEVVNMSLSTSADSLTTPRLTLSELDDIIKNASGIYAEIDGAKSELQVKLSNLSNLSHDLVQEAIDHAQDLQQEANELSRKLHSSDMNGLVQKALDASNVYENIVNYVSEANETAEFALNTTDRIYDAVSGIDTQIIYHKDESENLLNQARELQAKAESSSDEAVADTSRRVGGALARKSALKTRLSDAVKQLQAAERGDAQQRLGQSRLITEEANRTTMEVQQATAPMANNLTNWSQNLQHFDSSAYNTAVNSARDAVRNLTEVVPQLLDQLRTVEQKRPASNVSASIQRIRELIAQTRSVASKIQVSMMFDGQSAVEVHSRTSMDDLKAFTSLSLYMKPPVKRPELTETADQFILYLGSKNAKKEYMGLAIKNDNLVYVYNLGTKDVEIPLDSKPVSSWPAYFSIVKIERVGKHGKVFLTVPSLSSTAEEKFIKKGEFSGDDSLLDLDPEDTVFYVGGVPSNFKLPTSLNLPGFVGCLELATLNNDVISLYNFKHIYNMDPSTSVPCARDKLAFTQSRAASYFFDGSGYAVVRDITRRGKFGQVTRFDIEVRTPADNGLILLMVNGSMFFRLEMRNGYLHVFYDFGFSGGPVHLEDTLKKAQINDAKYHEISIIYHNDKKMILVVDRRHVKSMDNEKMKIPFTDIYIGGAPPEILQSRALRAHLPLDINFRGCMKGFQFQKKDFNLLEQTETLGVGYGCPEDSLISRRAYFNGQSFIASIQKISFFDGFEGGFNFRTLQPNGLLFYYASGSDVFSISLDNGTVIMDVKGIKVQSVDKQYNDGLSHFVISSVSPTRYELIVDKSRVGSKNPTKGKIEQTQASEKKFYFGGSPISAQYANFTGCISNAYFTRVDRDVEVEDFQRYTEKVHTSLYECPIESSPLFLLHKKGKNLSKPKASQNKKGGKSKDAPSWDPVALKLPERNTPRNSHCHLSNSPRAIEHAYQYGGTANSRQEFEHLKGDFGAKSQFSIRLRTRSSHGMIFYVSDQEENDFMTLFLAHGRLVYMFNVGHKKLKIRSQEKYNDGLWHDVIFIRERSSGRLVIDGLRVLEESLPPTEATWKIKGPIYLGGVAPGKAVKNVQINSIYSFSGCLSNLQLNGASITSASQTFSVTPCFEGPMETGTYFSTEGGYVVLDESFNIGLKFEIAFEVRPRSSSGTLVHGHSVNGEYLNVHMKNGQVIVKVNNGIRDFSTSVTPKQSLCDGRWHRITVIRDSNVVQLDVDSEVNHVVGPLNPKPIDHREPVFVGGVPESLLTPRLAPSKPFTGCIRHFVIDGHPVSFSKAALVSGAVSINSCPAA
# recombinant hMCAM-His [1] = biological target: T2, recombinant hMCAM-His (human, UniProt P43121 24-559); assay: competitive ELISA on coated hMCAM-His, competitor biotinylated rodent or chimeric 2120; IC50 relative to rodent 2120
# T2 chain: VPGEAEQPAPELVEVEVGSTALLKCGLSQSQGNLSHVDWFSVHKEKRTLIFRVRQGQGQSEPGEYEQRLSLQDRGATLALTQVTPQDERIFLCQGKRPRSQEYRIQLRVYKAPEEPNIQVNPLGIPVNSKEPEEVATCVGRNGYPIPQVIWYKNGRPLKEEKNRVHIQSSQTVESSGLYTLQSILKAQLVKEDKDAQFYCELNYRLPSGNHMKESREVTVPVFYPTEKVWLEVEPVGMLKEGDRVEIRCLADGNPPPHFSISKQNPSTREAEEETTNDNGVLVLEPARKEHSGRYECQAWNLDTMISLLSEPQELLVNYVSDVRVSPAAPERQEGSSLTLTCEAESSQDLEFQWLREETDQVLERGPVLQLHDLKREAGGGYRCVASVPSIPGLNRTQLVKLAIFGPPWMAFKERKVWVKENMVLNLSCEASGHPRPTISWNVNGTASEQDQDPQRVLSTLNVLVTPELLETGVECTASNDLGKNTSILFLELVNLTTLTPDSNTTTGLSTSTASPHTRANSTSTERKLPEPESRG
# Description: (§1) The apparent affinities of the humanized antibodies were compared to the parental rodent or chimeric antibody in a competitive ELISA according to the following protocol: ELISA plates were coated with recombinant hMCAM-His, and blocked with casein buffer to prevent non-specific binding. Biotinylated rodent or chimeric antibody was added at a subsaturating concentration, in the presence or absence of 3× increasing concentrations of unlabeled competitor (humanized antibody, rodent, or chimeric). After washing to remove unbound antibody, streptavidin HRP was added to allow detection of the biotinylated antibody. The ELISA was developed with TMB substrate and the OD450 was measured. The IC50 of the unlabeled competitor was determined using the GraphPad Prism5 software.
# recombinant hMCAM-His [2] = biological target: T2, recombinant hMCAM-His; assay: ForteBio Octet Red, antibody on anti-human Fc sensors, hMCAMHis analyte, 1:1 fit; affinity relative to rodent 2120, second Forte column
# Description: (§2) The affinities were measured using the ForteBio Octet Red. Anti-human Fc sensors were used to capture the humanized antibodies, and several concentrations of hMCAMHis analyte were used to determine the affinity using a 1:1 fitting model.
# recombinant hMCAM-His [3] = biological target: T2, recombinant hMCAM-His; assay: ForteBio Octet Red, antibody on anti-human Fc sensors, hMCAMHis analyte, 1:1 fit; affinity relative to rodent 2120, Expt. #2
# Description: as §2
# recombinant hMCAM-His [4] = biological target: T2, recombinant hMCAM-His; assay: competitive ELISA on coated hMCAM-His, competitor biotinylated rodent or chimeric 2120; IC50 relative to rodent 2120, Expt. #2
# Description: as §1
# [5] = biological target: B1; assay: laminin/FACS assay: blocking of recombinant laminin 411 binding to hMCAM expressing CHO cells, relative to rodent 2120, Expt#1
# Description: (§3) Following incubation for 30-45 minutes, the cells were washed and anti-laminin conjugated to AF650 (NovusBio) was added to detect the bound laminin. The cells were run on a flow cytometer to measure the laminin binding signal.
# [6] = biological target: B1; assay: laminin/FACS assay: blocking of recombinant laminin 411 binding to hMCAM expressing CHO cells, relative to rodent 2120, Expt#2
# Description: as §3
# recombinant hMCAM-His [7] = biological target: T2, recombinant hMCAM-His; assay: ForteBio Octet Red, antibody on anti-human Fc sensors, hMCAMHis analyte, 1:1 fit; affinity relative to rodent 2120, first Forte column
# Description: as §2
# recombinant hMCAM-His [8] = biological target: T2, recombinant hMCAM-His; assay: competitive ELISA on coated hMCAM-His, competitor biotinylated rodent or chimeric 2120; IC50 relative to rodent 2120, Expt. #1
# Description: as §1
# recombinant hMCAM-His [9] = biological target: T2, recombinant hMCAM-His; assay: ForteBio Octet Red, antibody on anti-human Fc sensors, hMCAMHis analyte, 1:1 fit; affinity relative to rodent 2120, Expt. #1
# Description: as §2
# recombinant hMCAM-His [10] = biological target: T2, recombinant hMCAM-His; assay: summary of ForteBio and competitive ELISA on hMCAM-His
# Description: as §1, §2
# [11] = biological target: B1; assay: summary of laminin blocking assay on hMCAM expressing CHO cells
# Description: as §3
Binder,Fold over rodent (ELISA) (recombinant hMCAM-His [1]) [fold],Fold over rodent (Forte) (recombinant hMCAM-His [2]) [fold],Fold over rodent (Forte) (recombinant hMCAM-His [3]) [fold],Fold over rodent (ELISA) (recombinant hMCAM-His [4]) [fold],Fold over rodent (Blocking) [5] [fold],Fold over rodent (Blocking) [6] [fold],Fold over rodent (Forte) (recombinant hMCAM-His [7]) [fold],Fold over rodent (ELISA) (recombinant hMCAM-His [8]) [fold],Fold over rodent (Forte) (recombinant hMCAM-His [9]) [fold],further results
B1,–,–,–,–,–,–,–,–,–,binding result (recombinant laminin 511): no binding (tested: 10 µg/ml)
B2,–,–,–,–,–,–,–,–,–,binding result (laminin α-4): no binding
B3,1.8,5.8,6.21,2.42,1.7,2.8,5.9,2.23,5.64,–
B4,–,–,6.43,2.62,–,–,–,1.93,6.57,–
B5,2.4,1.2,–,–,1.2,1.5,1.1,–,–,"reduction in affinity (fold, against rodent 2120) (recombinant hMCAM-His [10]): < 2 fold; reduction in potency (fold, against rodent 2120) [11]: < 2 fold"
